Assay results as given in patent US20220111042A1, “MANF as a Regulator of Immune System Function” (University of Massachusetts, priority 2014, published 2022).
Like-named read-outs stand apart in the source and are kept apart here.

Experiments:
DO 11.10 cells [1] = assay: Ara-C dose-response for cell death of DO 11.10 cells; assay type: cell-based; conditions: dose-response curve
MANF expression [2] = conditions: mouse splenocytes treated with cyclophosphamide; cited from earlier work
DO 11.10 cells [3] = assay: Dexamethasone dose-response for cell death of DO 11.10 cells; assay type: cell-based; conditions: dose-response curve
Description: FIGS. 10A-B provides an analysis of MANF's ability to protect DO 11.10 cells from cell death caused by the glucocorticoid dexamethasone. […] DO 11.10 cells were pretreated for 24 hrs with MANF (dose shown; B) and then challenged with 100 nM dexamethasone to induce cell death. *p=0.003; **p=0.019.
(§1) Because MANF is expressed in T cells and is induced when they become activated, experiments were performed to determine whether MANF confers protection to these cells. A dose-response curve was generated with the glucocorticoid dexamethasone to determine the dose that results in ˜50% cell death (24 nM) (FIG. 10A). DO 11.10 cells were then pretreated for 24 hours with 0, 10 ng/mL, 100 ng/mL, 1 μg/mL, 10 μg/mL, or 50 μg/mL MANF before exposure to 100 nM dexamethasone to investigate a protective effect for MANF. […] These are key functional data.

MANF expression [4] = conditions: male C57BL/6 B cells, B cell activation (CD40 at 65 nM); cited from earlier work
MANF expression [5] = conditions: immortalized B cells from 60 human individuals, tunicamycin to induce ER stress vs untreated; cited from earlier work
KLH-specific IgM = KLH-specific IgM ELISA after injection of mice with TNP-KLH/alum with MANF or PBS; assay type: in vivo; conditions: 8 week old male mice, i.p. 100 μg TNP-KLH with 5% alum plus 200 μL of 1 μg/μL MANF vs PBS; blood seven days later; p=0.0013
Description: FIG. 5 provides an ELISA analysis of anti-KLH specific IgM titers between mice injected with 2,4,6, Trinitrophenyl hapten conjugated Keyhole Limpet Hemocyanin (TNP-KLH) and either 200 μL of 1 μg/μL MANF (KLH-MANF; right) or phosphate buffered saline (KLH-PBS; left). P=0.0013, Student's t-test.
Based on the expression in the non-germinal cells within the lymph nodes it was speculated that MANF might enhance antibody production and provide for faster and/or higher titers of antibodies following exposure to a novel antigen. To test this hypothesis, 8 week old male mice were injected intraperitoneally with 100 μg of sterile TNP-KLH (2,4,6, Trinitrophenyl hapten conjugated Keyhole Limpet Hemocyanin) with 5% alum in the presence of 200 μL of 1 μg/μL MANF or an equal volume of PBS. Blood was sampled via the submandibular vein seven days later and the KLH-specific IgM analyzed using an enzyme linked immunoassays (ELISA) from Life Diagnostics, Inc. The concentration was calculated from a standard curve. A Student's t-test was used to establish statistical significance (p=0.0013).

DO 11.10 cells [6] = assay: MANF pretreatment protecting DO 11.10 cells from dexamethasone induced cell death; assay type: cell-based; conditions: 24 hours pretreatment, then 100 nM dexamethasone
Description: FIGS. 10A-B provides an analysis of MANF's ability to protect DO 11.10 cells from cell death caused by the glucocorticoid dexamethasone. […]. DO 11.10 cells were pretreated for 24 hrs with MANF (dose shown; B) and then challenged with 100 nM dexamethasone to induce cell death. *p=0.003; **p=0.019.
as §1

DO 11.10 cells [7] = assay: MANF pretreatment protecting DO 11.10 cells from Ara-C induced cell death; assay type: cell-based; conditions: 1, 10, 100 ng/mL MANF, 24 hours pretreatment, then 10 μM Ara-C
Source text: FIGS. 11A-B provide an analysis of MANF's ability to protect DO 11.10 cells from cell death caused by the DNA damaging chemotherapeutic drug cytosine arabinoside (Ara-C). […].

[8] = test system: midbrain dopaminergic neurons; conditions: primary nigral neuron cell cultures; cited from earlier work
dopaminergic neurons = conditions: cited from earlier work
[9] = injection of MANF into 6-OHDA treated rat brains

## Nc1ccn([C@@H]2O[C@H](CO)[C@@H](O)[C@@H]2O)c(=O)n1 [Ara-C, cytosine arabinoside]
DO 11.10 cells [1]
  LD50 (dose that results in 50% cell death): ~5 µM

## O=P1(N(CCCl)CCCl)NCCCO1 (centres unmarked) [cyclophosphamide]
MANF expression [2]
  MANF expression: highly induced

## C[C@@H]1C[C@H]2[C@@H]3CCC4=CC(=O)C=C[C@]4(C)[C@@]3(F)[C@@H](O)C[C@]2(C)[C@@]1(O)C(=O)CO [dexamethasone]
DO 11.10 cells [3]
  LD50 (dose that results in ~50% cell death): 24 nM

## B-cell activating factor: ligand used for B cell activation in ligand screen
MANF expression [4]
  MANF expression: dramatic, but transient, repression

## tunicamycin
MANF expression [5]
  MANF expression: higher levels of MANF expression

B1: MANF: mesencephalic astrocyte-derived neurotrophic factor, an 18 kDa secreted protein; form used in the tests not stated (protein, UniProt P55145 25-182, looked up)
Mesencephalic …: LRPGDCEVCISYLGRFYQDLKDRDVTFSPATIENELIKFCREARGKENRLCYYIGATDDAATKIINEVSKPLAHHIPVEKICEKLKKKDSQICELKYDKQIDLSTVDLKKLRVKELKKILDDWGETCKGCAEKSDYIRKINELMPKYAPKAASARTDL
KLH-specific IgM
  levels of anti-KLH IgM antibodies: significantly increased
DO 11.10 cells [6]; 10 ng/mL MANF, p=0.003
  protection against dexamethasone induced cell death: statistically significant, does-dependent protection
DO 11.10 cells [6]; 100 ng/mL MANF, p=0.019
  protection against dexamethasone induced cell death: statistically significant, does-dependent protection
DO 11.10 cells [6]; higher doses of MANF (1, 10, 50 μg/mL)
  protection against dexamethasone induced cell death: No statistically significant effects
DO 11.10 cells [7]
  protection against Ara-C induced cell death: dose-dependent protection
[8]
  protection of dopaminergic neurons from death: protected these midbrain dopaminergic neurons from death
Dopaminergic neurons; [9]
  behavioral symptoms associated with the disorder: reduced the behavioral symptoms
  loss of dopaminergic neurons: statistically significant reduction
Dopaminergic neurons; up to 4 weeks after 6-OHDA treatment
  dopaminergic neuron survival and motor defects: improve dopaminergic neuron survival and correct motor defects
